Test results from patent US20030199671A1, “Binding molecules for Fc-region polypeptides” (priority 2001, published 2003).
Where two headings read alike, the source gives them in different places. Each block holds one substance with its values, some of them ahead of it. code X = not defined here; code Z = not defined here

Legend:
IgG4 = IgG4 (Homo sapiens, UniProt P01861); assay type: binding; design: all human subtypes derived from myeloma patients; purchased Calbiochem 400126; host or cells: myeloma patients; settings: for Batch Binding (% Capture of Total Load) hIgG4: Table 18, average ligand density 1.9 μmole/ml
IgG4, sequence (P01861 1-327 isoform P01861-1): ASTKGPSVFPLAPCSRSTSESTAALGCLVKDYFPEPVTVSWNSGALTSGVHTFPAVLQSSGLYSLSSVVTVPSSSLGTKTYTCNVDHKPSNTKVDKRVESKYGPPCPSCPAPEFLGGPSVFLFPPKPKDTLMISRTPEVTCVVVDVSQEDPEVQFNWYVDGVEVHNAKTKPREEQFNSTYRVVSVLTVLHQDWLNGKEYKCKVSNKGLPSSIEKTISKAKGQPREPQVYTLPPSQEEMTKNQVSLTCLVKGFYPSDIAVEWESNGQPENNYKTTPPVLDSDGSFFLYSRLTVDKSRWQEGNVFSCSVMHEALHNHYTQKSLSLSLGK
Description: (§1) In addition, the following targets, all unfractionated IgGs, were also evaluated with selected immobilized peptides for species specificity characterization in a similar format: human IgG, goat IgG, bovine IgG, and mouse IgG (Sigma, product nos. I4506, I5256, I5506, and I15381, respectively). In addition, 10 μl aliquots of hydrolyzed NHS-activated Sepharose 4 Fast Flow (Amersham Pharmacia Biotech, product no. 17-0906-01) and immobilized recombinant Protein A (RepliGen Corp., product no. IPA-400) were also assayed as negative and positive controls. IgG targets were diluted into 10 mM phosphate buffer containing 150 mM NaCl and 0.01% Tween 20, pH 7.2 (PBST) or 50 mM Tris buffer containing, 150 mM NaCl and 0.01% Tween-20, pH 7.5 (TBST). Batch (static) binding and elution studies were conducted in a 96-well assay filterplate (Millipore MultiScreen-HV, with 0.45 μm Durapore membrane, product no. MAHVN4510). The target was allowed to incubate with the resin for 1-1.5 hours with shaking at room temperature. Unbound target was collected by centrifugation of samples from the assay plate directly into a low-UV absorbing 96-well collection plate (Costar, product no. 3635 or Greiner, product no. 655801). The unbound target was then quantitated by reading the absorbance at 280 nm (normalized to 1 cm pathlength, 1.4 mg/ml A280 extinction coefficient) of the collection plate on a microplate spectrophotometer (Molecular Devices Corp., SPECTRAmax PLUS) against a buffer blank.
(§2) The percentage bound target was determined by subtracting the mass determined as unbound from the corresponding condition's control values (control non-filtered added directly to the collection plate and/or the negative control). The assay plate was washed (3×) with 200 μl of binding buffer by vacuum filtration followed by addition of 100 μl of various elution conditions (e.g.: 0.1 M sodium bicarbonate buffer, pH 8.5 and/or 0.1 M sodium citrate buffer, pH 4.0). After a 30-60 minute incubation with shaking at room temperature, the eluted target was collected by centrifugation of the assay plate into another collection plate and quantitated in a similar manner. Percent elution of total load was then determined to characterize elution recovery efficiency under various conditions. The assay plate was then washed (3×) with 200 μl of binding buffer by vacuum filtration followed by addition of a resin cleaning condition (e.g., 0.1M CAPS buffer (3-[Cyclohexylamino]-1-propane-sulfonic acid), pH 11.5, to regenerate the resin for re-use. Percentage mass balance determination was calculated to be 90-100% on average.

human IgG1 = molecular target: T1, human IgG1 (Homo sapiens, UniProt P01857); assay type: binding; settings: for Batch Binding (% Capture of Total Load) hIgG1: Table 18, average ligand density 1.9 μmole/ml
T1 construct: all human subtypes derived from myeloma patients; purchased Calbiochem 400120; host or cells: myeloma patients
T1 sequence (P01857 1-330 isoform P01857-1): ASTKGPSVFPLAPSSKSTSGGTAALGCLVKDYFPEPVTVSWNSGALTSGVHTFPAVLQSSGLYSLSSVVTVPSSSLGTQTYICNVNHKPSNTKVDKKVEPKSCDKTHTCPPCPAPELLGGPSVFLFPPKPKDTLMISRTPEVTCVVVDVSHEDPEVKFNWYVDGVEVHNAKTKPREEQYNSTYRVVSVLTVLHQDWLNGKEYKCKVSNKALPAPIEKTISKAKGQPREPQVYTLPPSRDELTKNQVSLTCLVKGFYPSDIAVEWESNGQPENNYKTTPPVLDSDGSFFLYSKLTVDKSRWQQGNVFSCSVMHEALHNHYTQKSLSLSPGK
Description: as §1, §2

mouse IgG = assay type: binding
Description: as §1, §2

human IgG2 = molecular target: T2, human IgG2 (Homo sapiens, UniProt P01859); assay type: binding; settings: for Batch Binding (% Capture of Total Load) hIgG2: Table 18, average ligand density 1.9 μmole/ml
T2 construct: all human subtypes derived from myeloma patients; purchased Calbiochem 400122; host or cells: myeloma patients
T2 sequence (P01859 1-326 isoform P01859-1): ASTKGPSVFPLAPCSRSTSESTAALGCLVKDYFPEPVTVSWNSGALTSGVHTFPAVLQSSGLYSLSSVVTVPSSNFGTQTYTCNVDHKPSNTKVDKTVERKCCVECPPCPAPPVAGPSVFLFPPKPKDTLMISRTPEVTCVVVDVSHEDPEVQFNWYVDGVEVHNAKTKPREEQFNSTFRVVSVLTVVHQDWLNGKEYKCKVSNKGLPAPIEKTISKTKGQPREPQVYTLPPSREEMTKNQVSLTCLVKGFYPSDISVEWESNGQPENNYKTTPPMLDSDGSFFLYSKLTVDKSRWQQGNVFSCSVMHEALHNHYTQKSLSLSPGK
Description: as §1, §2

bovine IgG = assay type: binding
Description: as §1, §2

human IgG [1] = assay type: binding; settings: for Batch Binding (% Capture of Total Load) hIgG: Table 18, average ligand density 1.9 μmole/ml
Description: as §1, §2

goat IgG = assay type: binding
Description: as §1, §2

IgG3 = IgG3 (Homo sapiens, UniProt P01860); assay type: binding; design: all human subtypes derived from myeloma patients; purchased Calbiochem 400124; host or cells: myeloma patients; settings: for Batch Binding (% Capture of Total Load) hIgG3: Table 18, average ligand density 1.9 μmole/ml
IgG3, sequence (P01860 1-377 isoform P01860-1): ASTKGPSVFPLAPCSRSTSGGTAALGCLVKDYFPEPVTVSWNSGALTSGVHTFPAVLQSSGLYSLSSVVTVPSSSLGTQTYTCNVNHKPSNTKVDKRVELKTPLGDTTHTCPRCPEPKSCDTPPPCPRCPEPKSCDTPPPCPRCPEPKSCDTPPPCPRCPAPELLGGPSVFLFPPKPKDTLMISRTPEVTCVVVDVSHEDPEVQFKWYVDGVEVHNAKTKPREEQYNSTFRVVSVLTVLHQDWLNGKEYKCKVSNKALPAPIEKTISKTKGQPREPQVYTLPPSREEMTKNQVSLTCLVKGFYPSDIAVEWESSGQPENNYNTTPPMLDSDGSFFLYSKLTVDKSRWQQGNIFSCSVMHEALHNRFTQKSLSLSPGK
Description: as §1, §2

human IgG [2] = test: Static (filterplate) binding capacity; settings: 25 mg human IgG applied per ml resin
Description: These media were used to determine the effect of ligand density on human IgG binding capacity in both static (filterplate) and dynamic (mini-column) modes with commercial immobilized recombinant Protein A (Repligen, IPA400) at a single density as control. Actual ligand densities obtained ranged from 0.17 to 3.2 μmole/ml media as confirmed by quantitative amino acid analysis.
After incubation of the samples, with shaking, at room temperature for one hour, the supernatant liquid from each well, containing unbound IgG, was collected by centrifugation into the cognate well of a collection plate. The assay plate was washed three times with PBST (200 μl/wash) and bound IgG was eluted from the media samples by incubation for 30-60 minutes at room temperature in 100 μl Elution Buffer (100 mM CAPS, pH 11.5). Eluates were collected by centrifugation for analysis. Protein concentrations were determined from A280 measurements and plotted as a function of mg human IgG bound per ml resin vs. mg human IgG applied per ml resin.
The amount of IgG captured (estimated from IgG recovered in the elution step) by the various media is dependent upon both the IgG concentration and the ligand density. […] Under these static conditions, where both ligand and target concentrations are close to KD values, equilibrium binding is established and total capacities cannot be accurately determined. However, over the IgG range of 0 to 25 mg IgG applied per ml resin (0 to 2.5 mg/ml target added to 10 μl of resin), capture of IgG is linear. Beyond this point, up to a level of 200 mg IgG applied per ml resin, saturation becomes more pronounced.

human IgG [3] = test: Dynamic (mini-column) binding capacity; settings: Table 18; total dynamic capacity; average ligand density 1.9 μmole/ml
Description: These media were used to determine the effect of ligand density on human IgG binding capacity in both static (filterplate) and dynamic (mini-column) modes with commercial immobilized recombinant Protein A (Repligen, IPA400) at a single density as control.
The IgG solution was loaded onto the column at a flow rate of 0.2 ml/minute (170 cm/hr). […] At the end of the loading period, the column was washed with PBS until the absorbance at 280 nm of the column eluant returned to baseline. […] Neutralizing the pH of the eluted fractions was unnecessary since the total IgG eluted was determined by total protein absorbance at 280 nm.
To establish total media capacities, IgG was loaded onto the columns until the absorbances of the column load and flow through streams were identical (loading to full capacity). After washing the column to baseline, bound IgG was eluted and the total amount captured from this elution fraction determined. The total capacity of the media (mg IgG/ml media) as total IgG captured divided by the column bed volume was calculated.
Additionally, column capacities at 10% breakthrough were calculated from the online A280 measurements of column flowthrough streams. The A280 curves obtained for the column of interest and for an equivalent “blank” column containing hydrolyzed Sepharose FF 4 media were aligned. The difference in areas between these curves (for a retained and non-retained target) from the time of injection to the time at which the A280 value for the column of interest had risen to 10% of the maximum A280 absorbance (100%) obtained for the load solution at 100% IgG capture saturation (10% breakthrough) was graphically integrated. A standard curve was used to relate the integrated area to mg IgG bound and capacity calculated as total IgG bound divided by column bed volume.

[4] = Table 9, immobilized peptide, 5.0 mg/ml resin load
[5] = Table 13, average ligand density 1.8 μM/ml
[6] = Table 14, average ligand density 1.8 μM/ml

Substance: Ac-AGPVDCKHHFWWCYWNGTPGPEGGGK-NH2 (not fully specified (bridges); printed as Ac-AGPVDCKHHFWWCYWNGTPGPEGGGK-NH2; cysteine pairing not given here) [DX251]
% IgG Capture - Batch Binding, Human IgG4 (IgG4; [4]): 1%
% IgG Capture - Batch Binding, Human IgG1 (human IgG1; [4]): 6%
% IgG Capture - Batch Binding, Mouse IgG (mouse IgG; Table 11, unfractionated IgG): 4%
% IgG Capture - Batch Binding, Human IgG2 (human IgG2; [4]): 14%
% IgG Capture - Batch Binding, Bovine IgG (bovine IgG; Table 11, unfractionated IgG): 0%
% IgG Capture - Batch Binding, Human IgG (human IgG [1]; Table 11, unfractionated IgG): 4%
% IgG Capture - Batch Binding, Goat IgG (goat IgG; Table 11, unfractionated IgG): 0%
% IgG Capture - Batch Binding, Human IgG3 (IgG3; [4]): 5%

Substance: Ac-GDDHMCVYTTWGELIWCDNH-X-NH2 (Ac-GDDHMCVYTTWGELIWCDNH-{code X-NH2}; not fully specified (bridges); printed as Ac-GDDHMCVYTTWGELIWCDNH-X-NH2; cysteine pairing not given here; reading uncertain) [DX907]
Batch Binding (% Capture of Total Load) hIgG4 (IgG4): 35%
Decrease in apparent relative static capacity compared to DX249, DX877 and DX878 (human IgG [2]): ~2 fold
Batch Binding (% Capture of Total Load) hIgG1 (human IgG1): 65%
Batch Binding (% Capture of Total Load) hIgG2 (human IgG2): 54%
Batch Binding (% Capture of Total Load) hIgG (human IgG [1]): 49%
Batch Binding (% Capture of Total Load) hIgG3 (IgG3): 7%
Dynamic Cap. (human IgG [3]): 5 mg/mL

Substance: Ac-GDDHMCVYTTWGELIWCDNHEPGPEG-X-NH2 (Ac-GDDHMCVYTTWGELIWCDNHEPGPEG-{code X-NH2}; not fully specified (bridges); printed as Ac-GDDHMCVYTTWGELIWCDNHEPGPEG-X-NH2; cysteine pairing not given here; reading uncertain) [DX877]
Static Cap. (human IgG [2]; Table 18, average ligand density 1.9 μmole/ml): 20 mg/mL
Batch Binding (% Capture of Total Load) hIgG (human IgG [1]): 61%
Dynamic Cap. (human IgG [3]): 8 mg/mL

Substance: Ac-GDNPMCWKKSWWEDAYCINHGTPGPEGGGK-NH2 (not fully specified (bridges); printed as Ac-GDNPMCWKKSWWEDAYCINHGTPGPEGGGK-NH2; cysteine pairing not given here) [DX596]
hIgG4 elution pH 2.5 (% of Total Load) (IgG4; Table 13): 44%
hIgG4 elution pH 3.5 (% of Total Load) (IgG4; Table 13): 61%
hIgG4 elution pH 4.5 (% of Total Load) (IgG4; Table 13): 17%
hIgG4 elution pH 5.5 (% of Total Load) (IgG4; Table 13): 2%
hIgG4 elution pH 9.0 (% of Total Load) (IgG4; Table 13): 55%
hIgG4 elution pH 9.5 (% of Total Load) (IgG4; Table 13): 67%
hIgG4 Bound (% of Total Load) (IgG4; [5]): 65%
hIgG1 elution pH 2.5 (% of Total Load) (human IgG1; Table 13): 66%
hIgG1 elution pH 3.5 (% of Total Load) (human IgG1; Table 13): 78%
hIgG1 elution pH 4.5 (% of Total Load) (human IgG1; Table 13): 61%
hIgG1 elution pH 5.5 (% of Total Load) (human IgG1; Table 13): 3%
hIgG1 elution pH 9.0 (% of Total Load) (human IgG1; Table 13): 62%
hIgG1 elution pH 9.5 (% of Total Load) (human IgG1; Table 13): 58%
hIgG1 Bound (% of Total Load) (human IgG1; [5]): 87%
% IgG Capture - Batch Binding, Mouse IgG (mouse IgG; [6]): 5%
hIgG2 elution pH 2.5 (% of Total Load) (human IgG2; Table 13): 71%
hIgG2 elution pH 3.5 (% of Total Load) (human IgG2; Table 13): 92%
hIgG2 elution pH 4.5 (% of Total Load) (human IgG2; Table 13): 44%
hIgG2 elution pH 5.5 (% of Total Load) (human IgG2; Table 13): 3%
hIgG2 elution pH 9.0 (% of Total Load) (human IgG2; Table 13): 58%
hIgG2 elution pH 9.5 (% of Total Load) (human IgG2; Table 13): 64%
hIgG2 Bound (% of Total Load) (human IgG2; [5]): 81%
% IgG Capture - Batch Binding, Bovine IgG (bovine IgG; [6]): 5%
% IgG Capture - Batch Binding, Human IgG (human IgG [1]; [6]): 72%
% IgG Capture - Batch Binding, Goat IgG (goat IgG; [6]): 8%
hIgG3 elution pH 2.5 (% of Total Load) (IgG3; Table 13): 0%
hIgG3 elution pH 3.5 (% of Total Load) (IgG3; Table 13): 0%
hIgG3 elution pH 4.5 (% of Total Load) (IgG3; Table 13): 0%
hIgG3 elution pH 5.5 (% of Total Load) (IgG3; Table 13): 0%
hIgG3 elution pH 9.0 (% of Total Load) (IgG3; Table 13): 0%
hIgG3 elution pH 9.5 (% of Total Load) (IgG3; Table 13): 0%
hIgG3 Bound (% of Total Load) (IgG3; [5]): 0%

The next lines start with the values.

Batch Binding (% Capture of Total Load) hIgG4 (IgG4): 25%
Decrease in apparent relative static capacity compared to DX249, DX877 and DX878 (human IgG [2]): ~2 fold
Batch Binding (% Capture of Total Load) hIgG1 (human IgG1): 58%
Batch Binding (% Capture of Total Load) hIgG2 (human IgG2): 46%
Batch Binding (% Capture of Total Load) hIgG (human IgG [1]): 43%
Batch Binding (% Capture of Total Load) hIgG3 (IgG3): 6%
Substance: Ac-GDDHMCVYTTWGELIWCDNH-X-Z-X-NH2 (Ac-GDDHMCVYTTWGELIWCDNH-{code X-code Z-code X-NH2}; not fully specified (bridges); printed as Ac-GDDHMCVYTTWGELIWCDNH-X-Z-X-NH2; cysteine pairing not given here; reading uncertain) [DX911]

hIgG4 elution pH 3.0 (% of Total Load) (IgG4; Table 13): 11%
hIgG1 elution pH 3.0 (% of Total Load) (human IgG1; Table 13): 27%
% IgG Capture - Batch Binding, Human IgG (human IgG [1]; [6]): 49%
% IgG Capture - Batch Binding, Goat IgG (goat IgG; [6]): 4%
Substance: Ac-GDNPMCWRAHWWEDAYCINHEPGPEGGGK-NH2 (not fully specified (bridges); printed as Ac-GDNPMCWRAHWWEDAYCINHEPGPEGGGK-NH2; cysteine pairing not given here) [DX1072]

hIgG4 elution pH 3.0 (% of Total Load) (IgG4; Table 13): 5%
hIgG1 elution pH 3.0 (% of Total Load) (human IgG1; Table 13): 4%
% IgG Capture - Batch Binding, Mouse IgG (mouse IgG; [6]): 8%
% IgG Capture - Batch Binding, Human IgG (human IgG [1]; [6]): 45%
% IgG Capture - Batch Binding, Goat IgG (goat IgG; [6]): 3%
Substance: Ac-GDNPMCWRASWWEDAYCINHEPGPEGGGK-NH2 (not fully specified (bridges); printed as Ac-GDNPMCWRASWWEDAYCINHEPGPEGGGK-NH2; cysteine pairing not given here) [DX1071]
